In patent publication US20110070243A1 (published 2011):
Values belong to the binder of their own block, whether it stands above or below them.

Experiments:
rhesus CD79b = target: T1, rhesus CD79b (rhesus monkey, UniProt H9ZFT8 30-231); experiment: staining of rhesus monkey B cells; method not detailed
T1 construct: whole, on cells; also called rhesus monkey CD79b
T1 sequence: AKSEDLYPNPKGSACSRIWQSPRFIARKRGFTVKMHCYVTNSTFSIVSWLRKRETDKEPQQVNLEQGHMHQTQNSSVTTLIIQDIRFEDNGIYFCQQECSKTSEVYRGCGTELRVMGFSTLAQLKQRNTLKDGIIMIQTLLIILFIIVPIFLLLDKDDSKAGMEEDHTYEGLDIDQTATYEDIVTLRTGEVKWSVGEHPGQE

[1] = target: T2, cyno CD79b (TAHO40) 21mer peptide (cynomolgus monkey); experiment: peptide competition: antibody pre-incubated with the cyno peptide, then FACS staining of BJAB cells
T2 construct: also called cyno CD79b (TAHO40) 20 mer peptides
T2 peptide: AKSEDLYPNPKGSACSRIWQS

cyno CD79b (TAHO40) [2] = target: T3, cyno CD79b (TAHO40) (cynomolgus monkey); experiment: staining of cynomolgus monkey B cells; method not detailed
T3 construct: Target on BJAB-cyno CD79b cells (BJAB transfected with cyno CD79b) and on cynomolgus B cells; also called cynomolgus CD79b; PRO283627
T3 chain: T1 sequence

human CD79b (TAHO5) = target: T4, human CD79b (TAHO5) (human, UniProt P40259 29-229); experiment: Scatchard analysis on BJAB-cyno CD79b cells (which also express human CD79b)
T4 construct: also called PRO36249; Igbeta
T4 sequence: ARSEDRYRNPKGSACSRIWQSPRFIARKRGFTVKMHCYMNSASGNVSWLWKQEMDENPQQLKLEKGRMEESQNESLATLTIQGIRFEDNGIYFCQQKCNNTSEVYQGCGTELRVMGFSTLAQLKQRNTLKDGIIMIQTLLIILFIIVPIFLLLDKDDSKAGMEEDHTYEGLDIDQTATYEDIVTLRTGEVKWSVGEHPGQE

[3] = target: T5, human CD79b (TAHO5) 21mer peptide (human); experiment: peptide competition: antibody pre-incubated with the human 21mer peptide, then FACS staining of cells
T5 peptide: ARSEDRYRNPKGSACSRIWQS

cyno CD79b (TAHO40) [4] = target: T3, cyno CD79b (TAHO40); experiment: Scatchard analysis on BJAB-cyno CD79b cells

binding result (rhesus CD79b): no binding
binding result (cyno CD79b (TAHO40) [2]): no binding
B1: anti-human-CD79b-2F2 (antibody, V domains shown)
VH: QVQLQQPGAELVRPGASVKLSCKASGYTFTSYWMNWVKQRPGQGLEWIGMIDPSDSETHYNHIFKDKATLTVDKSSSTAYLQLSSLTSEDSAVYYCARNLYLWGQGTSVTVSL
VL: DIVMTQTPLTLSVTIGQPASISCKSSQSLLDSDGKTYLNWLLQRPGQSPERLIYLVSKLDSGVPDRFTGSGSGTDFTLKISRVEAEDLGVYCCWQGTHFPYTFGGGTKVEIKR
notes: Murine hybridoma monoclonal antibody; also called 2F2.20.1; anti-human CD79b (TAHO5) (2F2)
binding result [1]: no binding (tested: antibody:peptide 1:10)

binding result (rhesus CD79b): no binding
Kd (human CD79b (TAHO5)): 0.5 nM
binding result (cyno CD79b (TAHO40) [2]): no binding
B2: anti-human CD79b (TAHO5) antibody SN8 (antibody, V domains shown)
VL: DIVLTQSPASLAVSLGQRATISCKASQSVDYDGDSFLNWYQQKPGQPPKLFIYAASNLESGIPARFSGSGSGTDFTLNIHPVEEEDAATYYCQQSNEDPLTFGAGTELELKR
VH: EVQLQQSGAELMKPGASVKISCKATGYTFSSYWIEWVKQRPGHGLEWIGEILPGGGDTNYNEIFKGKATFTADTSSNTAYMQLSSLTSEDSAVYYCTRRVPVYFDYWGQGTSVTVSS
notes: Murine monoclonal antibody, commercial (Biomeda, BD, Ancell) or from the Roswell Park hybridoma; also called anti-human CD79b (SN8)
binding result [1]: no binding (tested: antibody:peptide 1:10)

Kd (cyno CD79b (TAHO40) [4]): 1 nM
B3: anti-cyno-CD79b-10D10 (antibody, V domains shown)
VH: EVQLQESGPGLVKPSQSLSLTCTVTGYSITSDYAWNWIRQFPGNKLEWMGNIWYSGSTTYNPSLKSRISITRDTSKNQFFLQLNSVTSEDTATYYCSRMDFWGQGTTLTVSS
VL: DIVLTQSPPSLAVSLGQRATISCRASESVDSYGKTFMHWHQQKPGQPPKLLIYRVSNLESGIPARFSGSGSRTDFTLTINPVEADDVATYYCQQSNEDPFTFGGGTKLEIKR
notes: Murine hybridoma monoclonal antibody; also called 10D10.3; ATCC PTA-7715
binding result [3]: no binding (tested: antibody:peptide 1:10)
